{
  "source": "paper PMC3439905",
  "target": "human alpha-thrombin (CD samples) (Homo sapiens, UniProt P00734;P00734 328-363;364-622)",
  "test": "CD thermal denaturation at 295 nm",
  "data": [
    {"binder": "GGTTGGTGTGGTTGG (structured_DNA)", "note": "[TBA (thrombin-binding aptamer)]", "values": [
      {"measurement": "binding result", "result": "binds"}
    ]}
  ]
}
